Reference: patent US20230087805A1

How the values were obtained:
[1] = target: C1ND (recombinant human CEACAM1 N-domain, residues 35-142, C-terminal Strep-Tag II, made in Expi293 cells) (human) (UniProt P13688); assay: isothermal titration calorimetry, HopQ^AD titration with C1ND, 25 °C, 1:1 stoichiometry
[2] = target: C1ND (recombinant human CEACAM1 N-domain, residues 35-142, C-terminal Strep-Tag II, made in Expi293 cells) (human) (UniProt P13688); assay: ELISA, C1ND coated, HopQ fragments titrated

| Substance | Kd [1] | fold reduction of CEACAM1 binding affinity against HopQ^AD [2] |
| --- | --- | --- |
| HopQ^AD (HopQ adhesin domain; soluble HopQ type I fragment of H. pylori strain G27, residues 37-463, C-terminal 6x His-tag) | 296 nM |  |
| HopQ^ADΔID (HopQ^AD in which amino acids 190-218 of the mature protein are replaced by two glycines) |  | 10 fold |
